Test system: growth-arrested HepG2 cells
Experiment: Number of TFBS repeats in the DTS (TetO, UAS), co-transfection with TetR or Gal4 mRNA in growth-arrested HepG2 cells; GFP intensity
Assay type: cell-based
Conditions: for gene expression over DNA alone on co-transfection with Gal4 mRNA / gene expression over DNA alone on co-transfection with TetR mRNA: growth-arrested HepG2 cells; for gene expression over DNA alone on co-transfection with Gal4 mRNA: 12 h
Description: Co-transfection of DNA and mRNA into HepG2 cells. HepG2 cells were purchased from ATCC and grown in complete media (EMEM+10% fetal bovine serum, ATCC). For co-transfection experiments, cells were seeded at confluence onto collagen coated 384-well plates and cultured for 48 hours in complete media followed by 48 hours in complete media supplemented with […] aphidicolin to prevent cell division. After the outgrowth period, cells were transfected using Lipofectamine3000 (Invitrogen) transfection reagent according to the manufacturer's instructions. RNA and DNA were independently complexed with Lipofectamine3000 in Opti-MEM I (Gibco) for 15 minutes. RNA and DNA complexes were then mixed, followed by 1:10 dilution into complete media supplemented with 0.75 μM aphidicolin. Media was aspirated from the plated HepG2 cells and replaced with the transfection mix. DNA was transfected from 17.5 ng to 4.38 ng per well. mRNA was transfected from 70 ng to 0.07 ng per well. Cells were live-imaged using a 4× objective with a GFP filter set and brightfield at 3-hour intervals for 72 hours using a Cytation5 automated microscope (Agilent) attached to a BioSpa8 automated incubator (Agilent). Gen5IPrime (Agilent) image analysis software was used to quantify the number of GFP cells and GFP Intensity per well.
In this study, DNAs were engineered to comprise DTSs having different numbers of TFBS repeats for TetR or Gal4, and the impact of multiple sequences assessed in vitro by co-transfection of mRNA encoding TetR or Gal4 NTF. Growth-arrested HepG2 cells were co-transfected with mRNA encoding the NTF protein along with DNA comprising a cognate DTS and a GFP expression cassette. Each NTF mRNA was paired with a cognate DNA in the co-transfection, where the cognate DNA comprised a DTS with varying numbers of cognate TFBS repeats. For example, the TetR mRNA was paired with DNAs comprising DTSs with 2, 3, 4, 5, 6, or 7 repeats of a TetR TFBS (e.g., TetO). Twenty-four hours after transfection, GFP expression was assessed by measuring GFP fluorescence intensity.
The increase in gene expression appeared to increase with the number of TetO repeats in the DTS, with 7 repeats producing an increase in GFP expression greater than 10-fold at the highest amount of RNA (e.g., 17.5 ng RNA) compared to DNA alone (FIG. 16A).
The Gal4 mRNA was paired with DNAs comprising DTSs with 1, 2, 3, 4, 5, 7, or 10 repeats of a Gal4 TFBS (e.g., UAS). Twelve hours after transfection, GFP expression was assessed by measuring GFP fluorescence intensity. […] The increase in gene expression appeared to increase with the number of UAS repeats in the DTS up to 5 repeats, while the increase in gene expression appeared saturable as 5, 7, and 10 repeats performed similarly (FIG. 16B). Co-transfection of Gal4 mRNA and DNA comprising a DTS of 5, 7, or 10 repeats produced an increase in GFP expression greater than 10-fold at the highest amount of RNA (e.g., 17.5 ng RNA) compared to DNA alone (e.g., 0 ng RNA) in HepG2 cells (FIG. 16B).

Molecule	gene expression over DNA alone on co-transfection with Gal4 mRNA	gene expression over DNA alone on co-transfection with TetR mRNA (24 h)	increase in GFP expression compared to DNA alone on co-transfection with TetR mRNA (highest amount of RNA (17.5 ng RNA), 24 h)
DTS with 2 repeats of UAS: DNA with GFP cassette and DTS of 2 UAS repeats (DNA CGGAGGACTGTCCTCCGTGAGTCCTAGCGGAGGACTGTCCTCCG; DNA nuclear targeting sequence within DNA carrying a GFP cassette, further chemistry not given here)	did not substantially increase gene expression	–	–
DTS with 1 repeat of UAS: DNA with GFP cassette and DTS of 1 UAS (Gal4 TFBS) (DNA ACACTAGAGTCGGAGGACTGTCCTCCGTGAGTCCTAG; DNA nuclear targeting sequence within DNA carrying a GFP cassette, further chemistry not given here)	did not substantially increase gene expression	–	–
DTS with 7 repeats of UAS: DNA with GFP cassette and DTS of 7 UAS repeats (nucleic acid) DNA: CGGAGGACTGTCCTCCGTGAGTCCTAGCGGAGGACTGTCCTCCGTCTTCACAGGCGGAGGACTGTCCTCCGTAGGGTTCCTCGGAGGACTGTCCTCCGACACTAGAGTCGGAGGACTGTCCTCCGGATAGTATCACGGAGGACTGTCCTCCGAGCAAACGAACGGAGGACTGTCCTCCG	did substantially increase gene expression	–	–
DTS with 7 repeats of TetO: DNA with GFP cassette and DTS of 7 TetO repeats (nucleic acid) DNA: CTCGAGTTTACTCCCTATCAGTGATAGAGAACGTATGTCGAGTTTACTCCCTATCAGTGATAGAGAACGATGTCGAGTTTACTCCCTATCAGTGATAGAGAACGTATGTCGAGTTTACTCCCTATCAGTGATAGAGAACGTATGTCGAGTTTACTCCCTATCAGTGATAGAGAACGTATGTCGAGTTTATCCCTATCAGTGATAGAGAACGTATGTCGAGTTTACTCCCTATCAGTGATAGAGAACGTATGTCGAGGTAGGCGTGTACGGTGGGAGGCCTATATAAGCAGAGCTCGTTTAGTGAACCGTCAGATCGCCTGGAGAATTCA	–	did substantially increase gene expression	greater than 10 fold
DTS with 6 repeats of TetO: DNA with GFP cassette and DTS of 6 TetO repeats (nucleic acid) DNA: CTCGAGTTTACTCCCTATCAGTGATAGAGAACGTATGTCGAGTTTACTCCCTATCAGTGATAGAGAACGATGTCGAGTTTACTCCCTATCAGTGATAGAGAACGTATGTCGAGTTTACTCCCTATCAGTGATAGAGAACGTATGTCGAGTTTACTCCCTATCAGTGATAGAGAACGTATGTCGAGTTTATCCCTATCAGTGATAGAGAACGTATGTCGAGTTTAC	–	did substantially increase gene expression	–
DTS with 4 repeats of UAS: DNA with GFP cassette and DTS of 4 UAS repeats (nucleic acid, DNA nuclear targeting sequence within DNA carrying a GFP cassette, further chemistry not given here, DNA with GFP cassette and DTS of 4 UAS repeats) DNA: CGGAGGACTGTCCTCCGTGAGTCCTAGCGGAGGACTGTCCTCCGTCTTCACAGGCGGAGGACTGTCCTCCGTAGGGTTCCTCGGAGGACTGTCCTCCG	did substantially increase gene expression	–	–
DTS with 4 repeats of TetO: DNA with GFP cassette and DTS of 4 TetO repeats (nucleic acid) DNA: CTCGAGTTTACTCCCTATCAGTGATAGAGAACGTATGTCGAGTTTACTCCCTATCAGTGATAGAGAACGATGTCGAGTTTACTCCCTATCAGTGATAGAGAACGTATGTCGAGTTTACTCCCTATCAGTGATAGAGAACGTATGTCGAGTTTAC	–	did substantially increase gene expression	–
DTS with 2 repeats of TetO: DNA with GFP cassette and DTS of 2 TetO repeats (nucleic acid, DNA nuclear targeting sequence within DNA carrying a GFP cassette, further chemistry not given here, DNA with GFP cassette and DTS of 2 TetO repeats) DNA: CTCGAGTTTACTCCCTATCAGTGATAGAGAACGTATGTCGAGTTTACTCCCTATCAGTGATAGAGAACGATGTCGAGTTTAC	–	did not substantially increase gene expression	–
DTS with 5 repeats of TetO: DNA with GFP cassette and DTS of 5 TetO repeats (nucleic acid) DNA: CTCGAGTTTACTCCCTATCAGTGATAGAGAACGTATGTCGAGTTTACTCCCTATCAGTGATAGAGAACGATGTCGAGTTTACTCCCTATCAGTGATAGAGAACGTATGTCGAGTTTACTCCCTATCAGTGATAGAGAACGTATGTCGAGTTTACTCCCTATCAGTGATAGAGAACGTATGTCGAGTTTA	–	did substantially increase gene expression	–
DTS with 3 repeats of UAS: DNA with GFP cassette and DTS of 3 UAS repeats (nucleic acid, DNA nuclear targeting sequence within DNA carrying a GFP cassette, further chemistry not given here, DNA with GFP cassette and DTS of 3 UAS repeats) DNA: CGGAGGACTGTCCTCCGTGAGTCCTAGCGGAGGACTGTCCTCCGTCTTCACAGGCGGAGGACTGTCCTCCG	did substantially increase gene expression	–	–
DTS with 5 repeats of UAS: DNA with GFP cassette and DTS of 5 UAS repeats (nucleic acid, DNA nuclear targeting sequence within DNA carrying a GFP cassette, further chemistry not given here, DNA with GFP cassette and DTS of 5 UAS repeats) DNA: CGGAGGACTGTCCTCCGTGAGTCCTAGCGGAGGACTGTCCTCCGTCTTCACAGGCGGAGGACTGTCCTCCGTAGGGTTCCTCGGAGGACTGTCCTCCGACACTAGAGTCGGAGGACTGTCCTCCG	did substantially increase gene expression	–	–
DTS with 10 repeats of UAS: DNA with GFP cassette and DTS of 10 UAS repeats (nucleic acid) DNA: CGGAGGACTGTCCTCCGTGAGTCCTAGCGGAGGACTGTCCTCCGTCTTCACAGGCGGAGGACTGTCCTCCGTAGGGTTCCTCGGAGGACTGTCCTCCGACACTAGAGTCGGAGGACTGTCCTCCGGATAGTATCACGGAGGACTGTCCTCCGAATGGACTAACGGAGGACTGTCCTCCGAGCAAACGAACGGAGGACTGTCCTCCGTACACCGATCCGGAGGACTGTCCTCCGGCGCTCGGCACGGAGGACTGTCCTCCG	did substantially increase gene expression	–	–
DTS with 3 repeats of TetO: DNA with GFP cassette and DTS of 3 TetO repeats (nucleic acid, DNA nuclear targeting sequence within DNA carrying a GFP cassette, further chemistry not given here, DNA with GFP cassette and DTS of 3 TetO repeats) DNA: CTCGAGTTTACTCCCTATCAGTGATAGAGAACGTATGTCGAGTTTACTCCCTATCAGTGATAGAGAACGATGTCGAGTTTACTCCCTATCAGTGATAGAGAACGTATGTCGAGTTTAC	–	did substantially increase gene expression	–

— US20260234655A1, “Nuclear Targeted DNA Delivery and Compositions for Use in Practicing the Same” (Seawolf Therapeutics, Inc., priority 2022, published 2026)
